In patent US20110305716A1 one finds Net Absorbance (450) (absorbance, Cell Viability (OD450/Control OD450) and percent of TGF-beta eluting in the IgG-bound fraction data, which are given here for three substances.

Assay [1] has as its target rat total IgG (Sigma-Aldrich) (rat). Nature of the assay: ELISA; rat total IgG coated on plate, 10 ng TGF-beta in 10% glycerol in 0.1M Tris pH 7.4, 18 h 4 C, bound TGF-beta detected with TGF-beta ELISA kit.
For assay [2] the target is unchanged. Briefly: ELISA; rat total IgG coated on plate, 10 ng TGF-beta in PBS, 18 h 4 C, bound TGF-beta detected with TGF-beta ELISA kit.
For assay [3] the target is unchanged. Nature of the assay: ELISA; rat total IgG coated on plate, 10 ng TGF-beta in 10% glycerol in PBS, 18 h 4 C, bound TGF-beta detected with TGF-beta ELISA kit. (In general: In an ELISA, binding on a coated surface is turned into a signal by an enzyme label.)
For assay [4] the target is unchanged. Nature of the assay: ELISA; rat total IgG coated on plate, 10 ng TGF-beta in 0.1M Tris pH 7.4 (0 mM NaCl), 18 h 4 C, bound TGF-beta detected with TGF-beta ELISA kit.
The target in assay [5] is total mouse IgG (Sigma-Aldrich) (mouse). Nature of the assay: 20 ng TGF-beta and 1 ug soluble total mouse IgG, 5 min in 0.5x PBS pH 11 at room temperature; Sepharose G-50 spin column; TGF-beta ELISA of eluate.
The target of assay [6] is TGF-beta receptors on mink lung epithelial cells (ATCC CCL-64) (mink). Nature of the assay: cell-based or functional assay.
For assay [7], the target named is total mouse IgG (Sigma-Aldrich) (mouse). Nature of the assay: 20 ng TGF-beta and 1 ug soluble total mouse IgG, 5 min in PBS at 42 C; Sepharose G-50 spin column; TGF-beta ELISA of eluate.
For assay [8] the target is unchanged. Nature of the assay: 20 ng TGF-beta and 1 ug soluble total mouse IgG, 5 min in PBS at room temperature; Sepharose G-50 spin column; TGF-beta ELISA of eluate.
For assay [9], the target named is Mouse IgG1 (eBioscience) (mouse). Nature of the assay: Sephadex G-50 gel filtration of the TGF-beta/IgG mixture; fractions assayed by TGF-beta ELISA.
Assay [10] concerns the target Mouse IgG2a (eBioscience) (mouse). The description is as above.

As to “TGF-beta (Leinco Technologies, St. Louis, Mo.) (from UniProt P01137 279-390) (ligand)”, the Net Absorbance (450) (absorbance at 450) amounted to 0.7 in assay [1], 0.18 in assay [2], 0 in assay [3] and 1.02 in assay [4].
“Transforming growth factor-beta 1 (Peprotech) (from UniProt P01137 279-390) (ligand)” showed a Net Absorbance (450) (absorbance at 450) in assay [5] of 0.558. In addition, in assay [6], the Cell Viability (OD450/Control OD450) at 0.25 pg/mL acid-dissociated (Treated) AcTigg (OD450/Control OD450) came out at 0.621, the Cell Viability (OD450/Control OD450) at 2.5 pg/mL acid-dissociated (Treated) AcTigg (OD450/Control OD450) came to 0.645, the Cell Viability (OD450/Control OD450) at 25 pg/mL acid-dissociated (Treated) AcTigg (OD450/Control OD450) came to 0.651 and the Cell Viability (OD450/Control OD450) at 250 pg/mL acid-dissociated (Treated) AcTigg (OD450/Control OD450) is 0.651. In assay [6], this substance returned a Cell Viability (OD450/Control OD450) at 2500 pg/mL acid-dissociated (Treated) AcTigg (OD450/Control OD450) of 0.616. The Net Absorbance (450) (absorbance at 450) in assay [7] worked out at 0.117. This substance also returned a Net Absorbance (450) (absorbance at 450) in assay [8] of 0.193. Besides, in assay [9], the percent of TGF-beta eluting in the IgG-bound fraction lay in the range of 40 to 50%. Moreover, the percent of TGF-beta eluting in the IgG-bound fraction in [10] is 40 to 50%.
For the substance “mouse AcTigg (TGF-beta 1 non-covalently bound to mouse IgG1), PEG-precipitated, intact (from UniProt P01137 279-390)”, in assay [6], the Cell Viability (OD450/Control OD450) at 0.25 pg/mL AcTigg (OD450/Control OD450) turned out to be 0.965, the Cell Viability (OD450/Control OD450) at 2.5 pg/mL AcTigg (OD450/Control OD450) was found to be 0.924, the Cell Viability (OD450/Control OD450) at 25 pg/mL AcTigg (OD450/Control OD450) is 0.897 and the Cell Viability (OD450/Control OD450) at 250 pg/mL AcTigg (OD450/Control OD450) turned out to be 0.817. The substance further displayed a Cell Viability (OD450/Control OD450) at 2500 pg/mL AcTigg (OD450/Control OD450) in assay [6] of 0.678.
